Patent US20070104647A1

Columns and labels:
[1] = target: transferrin receptor on 293F and HT29 cells (UniProt P02786); assay: cell-based or functional assay
[2] = target: transferrin receptor on 293F and HT29 cells (UniProt P02786); assay: FACS, non-transfected 293F cells
[3] = target: transferrin receptor on 293F and HT29 cells (UniProt P02786); assay: FACS, Ovr115-transfected 293F cells
[4] = target: Full length HA-tagged Ovr115 (Met1-Leu435) expressed on transfected LMTK or 293F cells (human) (UniProt Q9NRS4); assay: FACS, Ovr115-HA LMTK cells
[5] = target: Full length HA-tagged Ovr115 (Met1-Leu435) expressed on transfected LMTK or 293F cells (human) (UniProt Q9NRS4); assay: FACS, Ovr115-transfected 293F cells
[6] = target: Full length HA-tagged Ovr115 (Met1-Leu435) expressed on transfected LMTK or 293F cells (human) (UniProt Q9NRS4); assay: FACS on Ovr115 transfected mouse LMTK cells, PE conjugate alone without MAb [panel A]

UniProt P02786, sequence (P02786 whole entry): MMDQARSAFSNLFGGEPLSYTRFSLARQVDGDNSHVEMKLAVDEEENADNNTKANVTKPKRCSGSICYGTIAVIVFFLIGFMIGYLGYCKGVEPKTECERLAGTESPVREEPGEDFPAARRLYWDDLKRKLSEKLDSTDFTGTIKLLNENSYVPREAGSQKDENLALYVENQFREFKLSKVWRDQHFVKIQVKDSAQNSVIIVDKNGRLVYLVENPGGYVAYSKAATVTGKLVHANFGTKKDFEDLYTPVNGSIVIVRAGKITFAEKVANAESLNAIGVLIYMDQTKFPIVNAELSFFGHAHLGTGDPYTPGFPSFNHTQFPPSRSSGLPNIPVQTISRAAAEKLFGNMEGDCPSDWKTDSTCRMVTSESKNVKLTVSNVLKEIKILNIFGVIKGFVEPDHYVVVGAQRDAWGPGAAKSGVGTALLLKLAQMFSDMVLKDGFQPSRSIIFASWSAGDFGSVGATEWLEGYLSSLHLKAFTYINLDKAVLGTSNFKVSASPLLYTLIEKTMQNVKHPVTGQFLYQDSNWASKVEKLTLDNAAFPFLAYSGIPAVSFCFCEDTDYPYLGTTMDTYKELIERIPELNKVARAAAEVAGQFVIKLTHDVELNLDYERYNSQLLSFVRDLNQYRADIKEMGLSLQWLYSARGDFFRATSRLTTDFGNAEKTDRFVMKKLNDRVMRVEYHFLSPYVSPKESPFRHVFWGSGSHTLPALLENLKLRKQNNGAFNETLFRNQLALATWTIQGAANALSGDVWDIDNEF

Percent Growth Inhibition Compared to Wells with Medium Alone; HT29; MAb (0.08 µg/mL) + MAb Zap saporin conjugate [1] [%]	Percent Growth Inhibition Compared to Wells with Medium Alone; HT29; MAb (0.4 µg/mL) + MAb Zap saporin conjugate [1] [%]	Percent Growth Inhibition Compared to Wells with Medium Alone; HT29; MAb (2 µg/mL) + MAb Zap saporin conjugate [1] [%]	% cells positive [2] [%]	MFI [2]	% cells positive [3] [%]	MFI [3]	% cells positive [4] [%]	MFI [4]	% cells positive [5] [%]	MFI [5]	Mean of Fluorescence [6]	Substance
18	58	35	99.8	54.3	99.4	71.1						5E9C11 (antibody)
							61	19				Anti-HA MAb (Covance) (antibody)
							0.6	2.15	1.7	0.567	0.57	phycoerythrin (PE) conjugated donkey anti-mouse IgG Fc antibody
